Test results from US8236753 (BRIGHAM AND WOMEN S HOSPITAL, dated 2012).
Residue numbers refer to the chain shown, from its start. In names and notes the source's numbering stands.

B1: wild-type RAP-D3 (third domain of the receptor-associated protein, residues 216-323) (ligand, human)
chain: GAEFEEPRVIDLWDLAQSANLTDKELEAFREELKHFEAKIEKHNHYQKQLEIAHEKLRHAESVGDGERVSRSREKHALLEGRTKELGYTVKKHLQDLSGRISRARHNEL
notes: range 216-323; Expressed in E. coli as a GST fusion, released by TEV protease, monomer isolated by size exclusion; The range 216-323 counts on the mature RAP protein, not on the precursor; also called RAP-D3 WT; RAPD3_WT
B2: LA3-4 module pair of the LDLR (LDL receptor type-A repeats 3 and 4) (receptor)
chain: not shown
notes: domain: LA3-4 module pair; also called two-repeat fragment of the LDL receptor; LA3-4 repeat pair
B3: RAP-D3 [H268F/H290F] (ligand)
chain: B1 chain with H54F, H76F
notes: also called RAPD3_H268, 290F
B4: RAP-D3-quad (RAP-D3 H257F/H259F/H268F/H290F) (ligand)
chain: B1 chain with H43F, H45F, H54F, H76F
notes: also called RAP-D3 Quad H:F; RAPD3_H257, 259, 268, 290F
B5: RAP-D3 [H257F/H259F] (ligand)
chain: B1 chain with H43F, H45F
notes: The entry is printed as ENLYFQG followed by the 108 residues; also called RAPD3_H257, 259F; RAP-D3 H257,259F

Legend:
[1] = molecular target: B2; experiment: ITC, RAP-D3 titrated into LA3-4, 20 mM HEPES pH 7.3, 5 mM CaCl2, 25 C, 50 mM NaCl; set-up: ΔH: unit not given here
Experimental: (§1) RAP-D3 titrations were performed in 20 mM HEPES, pH 7.3, 50-150 mM NaCl, 5 mM CaCl_2 at 25° C. using a VP-ITC calorimeter (MicroCal Inc., Northampton, Mass.) in a 1.3 mL reaction vessel. A RAP-D3 stock solution (132-178 μM) was added in 6-8 μL increments to LA3-4 (20-25 μM). Calorim-

[2] = molecular target: B2; experiment: ITC, RAP-D3 titrated into LA3-4, 20 mM HEPES pH 7.3, 5 mM CaCl2, 25 C, 150 mM NaCl; set-up: ΔH: unit not given here
Experimental: as §1

[3] = molecular target: B1; experiment: ITC, RAP-D3 titrated into LA3-4, 20 mM HEPES pH 7.3, 5 mM CaCl2, 25 C, 50 mM NaCl; set-up: ΔH: unit not given here
Experimental: as §1

[4] = molecular target: B1; experiment: ITC, RAP-D3 titrated into LA3-4, 20 mM HEPES pH 7.3, 5 mM CaCl2, 25 C, 150 mM NaCl; set-up: ΔH: unit not given here
Experimental: as §1

[5] = molecular target: B2; experiment: ITC at neutral pH
Experimental: as §1

[6] = molecular target: B2; experiment: ITC, RAP-D3 titrated into LA3-4, 20 mM HEPES pH 7.3, 5 mM CaCl2, 25 C, 100 mM NaCl; set-up: ΔH: unit not given here
Experimental: as §1

[7] = molecular target: B2; experiment: ITC, RAP-D3 titrated into LA3-4, 20 mM HEPES pH 7.3, 5 mM CaCl2, 25 C, 100 mM NaCl; 100 mM NaCl
Experimental: as §1

ΔH [1]	fold difference in affinity against wild-type RAP-D3 [5]	Kd [1]	Binder	other results
-9.1			B1	ΔH [2]: -6.8
			B2	Kd [3]: 480 nM; Kd [4]: 1170 nM
-9.3	≤ 2 fold	1160 nM	B3	
	≤ 2 fold		B4	Kd [6]: 850 nM; ΔH [6]: -5.4; Ka [7]: 1.2e+06 M⁻¹
-8.6	≤ 2 fold	850 nM	B5	
